Data on two molecules can be found in PMC8363759 (Cell reports, 2021).

Substitutions are numbered along the chain they refer to.

The target of one test is T1, h5MP1 (WT) (human, UniProt Q9Y6E2 1-419).
T1 sequence (looked up): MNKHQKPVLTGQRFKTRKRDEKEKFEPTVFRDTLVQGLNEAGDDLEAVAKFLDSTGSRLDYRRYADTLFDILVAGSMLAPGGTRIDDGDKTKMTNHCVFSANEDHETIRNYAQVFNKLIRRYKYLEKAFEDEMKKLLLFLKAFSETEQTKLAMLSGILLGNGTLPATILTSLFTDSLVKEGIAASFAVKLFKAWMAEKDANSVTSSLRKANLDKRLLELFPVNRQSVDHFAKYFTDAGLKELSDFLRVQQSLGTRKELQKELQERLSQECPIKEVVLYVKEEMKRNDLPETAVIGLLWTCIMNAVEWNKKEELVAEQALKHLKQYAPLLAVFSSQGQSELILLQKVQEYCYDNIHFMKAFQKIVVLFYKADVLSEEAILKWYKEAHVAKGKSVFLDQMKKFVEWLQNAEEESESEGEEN
Kind of test: ITC. A general note: ITC needs no label: the signal is the heat of the interaction.

The target in a further test is T2, h5MP1-BN1 (human, UniProt Q9Y6E2 1-419, K380Q | K383Q | H386Q | K389Q | K391Q).
T2 sequence (looked up): T1 sequence (looked up) with K380Q, K383Q, H386Q, K389Q, K391Q
The test is described as follows: ITC.

The target in the next test is T3, GST-h5MP1 (human, UniProt Q9Y6E2 1-419).
T3 sequence (looked up): T1 sequence (looked up)
Kind of test: pull-down.

B1: heIF2β_(53-136) (domain or fragment, human, UniProt P20042 53-136, looked up)
chain: DLEADEEDTRKKDASDDLDDLNFFNQKKKKKKTKKIFDIDEAEEGVKDLKIESDVQEPTEPEDDLDIMLGNKKKKKKNVKFPDE
On to B1, for which the binding result in the test with h5MP1 (WT) and with h5MP1-BN1 was “binds” each time.

B2: GB-heIF3c_(20-102) (domain or fragment, human, UniProt Q99613 20-102, looked up)
chain: EELVTKPVGGNYGKQPLLLSEDEEDTKRVVRSAKDKRFEELTNLIRTIRNAMKIRDVTKCLEEFELLGKAYGKAKSIVDKEGV
For the molecule B2, the binding result with GST-h5MP1 is reported as “binds”.
